Measured values reported in the supplement of paper PMC9112550, “Optimization of the antimicrobial peptide Bac7 by deep mutational scanning” (BMC Biology, 2022).

These sequences were tested on Escherichia coli TOP10 (assay: shrunken log2 fold change of peptide-encoding DNA abundance (4.5 h post-induction vs induction); higher = less antimicrobial activity (less host growth inhibition)). Conditions: time post-induction: 4.5 h; library: site-saturation at positions 5, 18, 19, 20.
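Also: peptides expressed intracellularly from a pBAD plasmid library in pooled LB shake-flask culture, induced with 0.3% L-arabinose, DNA abundance read by NGS, three biological replicates, DESeq2 with apeglm shrinkage.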

Sequence | shrunken log2 fold change
RRIRVRPPRLPRPRPRPKWVPRP | 0.0874
RRIRKRPPRLPRPRPRPAPWPRP | 0.82
RRIRGRPPRLPRPRPRPNFMPRP | 0.0686
RRIRRRPPRLPRPRPRPIYAPRP | 3.39
RRIRERPPRLPRPRPRPIQMPRP | -0.14
RRIRCRPPRLPRPRPRPHITPRP | -0.704
RRIRCRPPRLPRPRPRPLTEPRP | 0.131
RRIRDRPPRLPRPRPRPMICPRP | -0.0307
RRIRYRPPRLPRPRPRPGPMPRP | -0.148
RRIRQRPPRLPRPRPRPNELPRP | -0.24
RRIRDRPPRLPRPRPRPLTYPRP | -0.339
RRIRVRPPRLPRPRPRPAVSPRP | 0.0786
RRIRPRPPRLPRPRPRPATYPRP | -0.46
RRIRSRPPRLPRPRPRPGEPPRP | -0.054
RRIRIRPPRLPRPRPRPKYNPRP | -1.01
RRIRFRPPRLPRPRPRPSTMPRP | -0.391
RRIRMRPPRLPRPRPRPNMYPRP | 0.0412
RRIRLRPPRLPRPRPRPAGPPRP | 0.338
RRIRPRPPRLPRPRPRPTVIPRP | -0.28
RRIRTRPPRLPRPRPRPCDGPRP | 0.134
RRIRSRPPRLPRPRPRPEGAPRP | 1.95
RRIRRRPPRLPRPRPRPPENPRP | 0.615
RRIRARPPRLPRPRPRPECLPRP | 0.909
RRIRYRPPRLPRPRPRPPYIPRP | -0.496
RRIRSRPPRLPRPRPRPGALPRP | 0.324

Sequence | shrunken log2 fold change
RRIRTRPPRLPRPRPRPFIQPRP | -0.312
RRIRSRPPRLPRPRPRPPYDPRP | -0.397
RRIRSRPPRLPRPRPRPWMSPRP | 0.132
RRIRARPPRLPRPRPRPLLMPRP | 0.384
RRIRTRPPRLPRPRPRPLITPRP | -0.489
RRIRKRPPRLPRPRPRPATRPRP | 0.423
RRIRKRPPRLPRPRPRPQLIPRP | 0.0871
RRIRNRPPRLPRPRPRPFWQPRP | 0.201
RRIRTRPPRLPRPRPRPQTKPRP | 0.0553
RRIRLRPPRLPRPRPRPFQAPRP | 0.0248
RRIRKRPPRLPRPRPRPMGEPRP | -0.0199
RRIRWRPPRLPRPRPRPNARPRP | 0.0903
RRIRLRPPRLPRPRPRPWGFPRP | -0.0515
RRIRFRPPRLPRPRPRPLQTPRP | 0.165
RRIRMRPPRLPRPRPRPPELPRP | 0.372
RRIRRRPPRLPRPRPRPTDWPRP | 0.414
RRIRYRPPRLPRPRPRPACGPRP | -0.145
RRIRPRPPRLPRPRPRPFSWPRP | -0.0698
RRIRMRPPRLPRPRPRPGCTPRP | 0.245
RRIRLRPPRLPRPRPRPQHLPRP | -0.223
RRIRARPPRLPRPRPRPKKLPRP | 0.223
RRIRYRPPRLPRPRPRPSTTPRP | -0.717
RRIRERPPRLPRPRPRPESMPRP | -0.46
RRIRCRPPRLPRPRPRPMLIPRP | -0.552
RRIRSRPPRLPRPRPRPLRQPRP | 0.364

Sequence | shrunken log2 fold change
RRIRCRPPRLPRPRPRPLLFPRP | -0.277
RRIRDRPPRLPRPRPRPIVHPRP | -0.25
RRIRGRPPRLPRPRPRPNDVPRP | -0.208
RRIRARPPRLPRPRPRPNGPPRP | 0.149
RRIRTRPPRLPRPRPRPSNMPRP | -0.851
RRIRNRPPRLPRPRPRPSVFPRP | -0.342
RRIRFRPPRLPRPRPRPVYEPRP | -0.66
RRIRPRPPRLPRPRPRPIQGPRP | -0.128
RRIRGRPPRLPRPRPRPDLMPRP | 0.878
RRIRCRPPRLPRPRPRPPKLPRP | 0.0685
RRIRMRPPRLPRPRPRPACDPRP | 0.974
RRIRMRPPRLPRPRPRPHIDPRP | 0.29
RRIRQRPPRLPRPRPRPTAGPRP | 0.144
RRIRVRPPRLPRPRPRPNTYPRP | -0.71
RRIRIRPPRLPRPRPRPWVQPRP | -0.0105
RRIRERPPRLPRPRPRPGISPRP | -0.017
RRIRWRPPRLPRPRPRPIPFPRP | -0.102
RRIRIRPPRLPRPRPRPCNPPRP | -0.123
RRIRARPPRLPRPRPRPRFTPRP | 0.267
RRIRPRPPRLPRPRPRPPMMPRP | 0.0805
RRIRRRPPRLPRPRPRPDNSPRP | -0.078
RRIRNRPPRLPRPRPRPMAPPRP | -0.0631
RRIRFRPPRLPRPRPRPSDPPRP | -0.106
RRIRFRPPRLPRPRPRPNFCPRP | 0.0651
RRIRSRPPRLPRPRPRPKMFPRP | -0.00685

Sequence | shrunken log2 fold change
RRIRNRPPRLPRPRPRPKCCPRP | -0.0855
RRIRFRPPRLPRPRPRPTRNPRP | 0.184
RRIRGRPPRLPRPRPRPMKLPRP | 0.265
RRIRRRPPRLPRPRPRPIWIPRP | -0.32
RRIRCRPPRLPRPRPRPIGPPRP | 0.112
RRIRKRPPRLPRPRPRPLCHPRP | 0.252
RRIRDRPPRLPRPRPRPKNAPRP | -0.0796
RRIRIRPPRLPRPRPRPPIDPRP | -0.724
RRIRGRPPRLPRPRPRPWHYPRP | 0.0232
RRIRTRPPRLPRPRPRPQMSPRP | 0.056
RRIRMRPPRLPRPRPRPRVKPRP | 0.494
RRIRIRPPRLPRPRPRPGIMPRP | -0.137
RRIRWRPPRLPRPRPRPKDPPRP | -0.0777
RRIRWRPPRLPRPRPRPLMKPRP | -0.0639
RRIRARPPRLPRPRPRPTQNPRP | 1.05
RRIRCRPPRLPRPRPRPIEAPRP | -0.108
RRIRRRPPRLPRPRPRPSTMPRP | -0.467
RRIRARPPRLPRPRPRPDTFPRP | 0.158
RRIRMRPPRLPRPRPRPENFPRP | 0.0515
RRIRERPPRLPRPRPRPTHDPRP | -0.141
RRIRARPPRLPRPRPRPMQRPRP | 0.383
RRIRSRPPRLPRPRPRPELIPRP | -0.123
RRIRARPPRLPRPRPRPPVAPRP | 0.77
RRIRRRPPRLPRPRPRPCFYPRP | -0.187
RRIRERPPRLPRPRPRPEYIPRP | -0.177

Sequence | shrunken log2 fold change
RRIRHRPPRLPRPRPRPQAHPRP | -0.0538
RRIRTRPPRLPRPRPRPEQTPRP | 0.303
RRIRFRPPRLPRPRPRPVCIPRP | -0.541
RRIRQRPPRLPRPRPRPCDWPRP | 0.202
RRIRYRPPRLPRPRPRPHFEPRP | -0.115
RRIRMRPPRLPRPRPRPDYNPRP | -0.21
RRIRHRPPRLPRPRPRPEPEPRP | 0.241
RRIRSRPPRLPRPRPRPFWEPRP | 0.0122
RRIRRRPPRLPRPRPRPIFAPRP | 0.355
RRIRGRPPRLPRPRPRPGAWPRP | 1.56
RRIRWRPPRLPRPRPRPGSNPRP | 0.227
RRIRKRPPRLPRPRPRPRMNPRP | 0.115
RRIRSRPPRLPRPRPRPNFSPRP | -0.112
RRIRERPPRLPRPRPRPMKCPRP | 0.00911
RRIRGRPPRLPRPRPRPNYLPRP | -0.304
RRIRVRPPRLPRPRPRPEWVPRP | 0.23
RRIRLRPPRLPRPRPRPQTDPRP | -0.139
RRIRRRPPRLPRPRPRPRTGPRP | 0.476
RRIRVRPPRLPRPRPRPKSGPRP | 0.148
RRIRARPPRLPRPRPRPTCFPRP | 0.57
RRIRIRPPRLPRPRPRPIEWPRP | -0.123
RRIRPRPPRLPRPRPRPGCSPRP | 0.266
RRIRTRPPRLPRPRPRPESSPRP | -0.0341
RRIRSRPPRLPRPRPRPSYHPRP | -0.836
RRIRQRPPRLPRPRPRPYQPPRP | -0.0272
